Laboratory results from patent publication US20220195053A1 (SURROZEN OPERATING, published 2022).

T1: Mucin 13, cell surface associated (MUC-13), on human intestine HT29 cells (human, UniProt Q9H3R2 19-512)
T1 construct: whole, on cells
T1 sequence (looked up): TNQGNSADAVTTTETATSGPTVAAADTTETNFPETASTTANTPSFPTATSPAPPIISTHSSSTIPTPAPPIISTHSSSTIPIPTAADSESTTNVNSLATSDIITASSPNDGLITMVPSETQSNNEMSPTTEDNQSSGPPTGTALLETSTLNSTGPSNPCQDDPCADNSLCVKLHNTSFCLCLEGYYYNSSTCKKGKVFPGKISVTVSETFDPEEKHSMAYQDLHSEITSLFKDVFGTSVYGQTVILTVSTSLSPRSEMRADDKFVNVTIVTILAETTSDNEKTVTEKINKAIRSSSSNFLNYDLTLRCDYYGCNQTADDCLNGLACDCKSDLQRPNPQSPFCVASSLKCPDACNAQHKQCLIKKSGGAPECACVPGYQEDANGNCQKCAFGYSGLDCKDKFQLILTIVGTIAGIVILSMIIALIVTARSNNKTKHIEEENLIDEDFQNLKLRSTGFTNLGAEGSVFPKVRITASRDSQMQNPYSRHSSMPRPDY

B1: C4 MUC-13 antibody, full-length IgG format (antibody, V domains shown)
VH: DVQLQESGPGLVKPSQSLSLTCSVTGYSITSGYYWNWIRQFPGNKLEWMGYISYDGSNNYNPSLKNRISITRDTSKNQFFLKLNSVTTEDTATYYCVRVPTMITSYYFDYWGQGTTLTVSS
VL: QIVLTQSPAIMSASPGEKVTISCSASSSVGYIYWYQQKPGSSPKPWIYRTSNLASGVPARFSGSGSGTSYSLTISSMEAEDAATYYCQQYHSYPPTFGGGTKLEIKR
B2: C14 MUC-13 antibody, full-length IgG format (antibody, V domains shown)
VH: QVQLQQSGAELVRPGSSVKISCKASGYAFSTYWMNWVKQRPGQGLEWIGQIYPGDGDTYYNGNFKGKATLTADKSSSTAYMQLSSLTSEDSAVYFCAVFWDGYWGQGTTLTVSS
VL: QIVLTQSPTIMSASPGEKVTMTCSASSSVTYIHWYQQKSGTSPKRWIYDTSKLASGVPARFGGSGSGTSYSLTINSMETEDAATYYCQQWSSNPFTFGSGTKLEIKR

Experiments:
[1] = molecular target: T1, Mucin 13, cell surface associated …; test: Flow cytometry (FACS) on MUC-13 expressing HT29 cells, antibody at 10 nM, compared with the anti-GFP IgG control. HEK293 cells serve as the MUC-13 negative control.
Protocol: (§1) Cell surface binding of the MUC-13 antibodies was examined by FACS at 10 nM.
(§2) The MUC-13 binders C4, C7, and C14 (see, e.g., WO2016168607A1) were cloned and produced in the full-length IgG format and their binding capacity to MUC-13 was determined by FACS analysis to MUC-13 expressing HT29 cells. Their potential binding to MUC-13 non-expressing HEK293 cells was also analyzed as a negative control. Cells were harvested and washed 2× with FACS buffer (PBS (—Ca²⁺, —Mg²⁺), 0.1% BSA, 0.5% sodium Azide) and resuspended in FACS buffer at 10⁶ cells/ml. 60 μl of the cell suspension was aliquoted to each well of a 96-well v bottom plate, and the plate was spun for 3 min at 1500 rpm to remove the FACS buffer before adding corresponding MUC-13 antibody or anti-GFP control antibody at 10 nM diluted in FACS buffer and incubated at 4C for 1 hour. Plate was then spun to remove the primary antibodies and washed 1× with FACS buffer before adding Alexa Fluor® 488 goat anti-human secondary antibody (ThermoFisher Scientific) and incubating at 4C for 30 min. This media was then removed after spinning, and the plate washed 1× in FACS buffer. Cells were then resuspended in […] FACS buffer and analyzed on a BD Accuri™ Cell Analyzers (Becton Dickinson) at 10,000 events. […]

[2] = molecular target: T1, Mucin 13, cell surface associated …; test: Flow cytometry (FACS) on MUC-13 expressing HT29 cells, antibody at 10 nM, fluorescent goat anti-human secondary antibody, compared with the anti-GFP IgG control. MUC-13 negative HEK293 cells serve as the specificity control.
Protocol: as §1, §2

Binder | binding result [1] | binding result [2]
B1 | no binding (tested: 10 nM) | 
B2 |  | binds
